Results on one substance are retold here after article PMC11483992.

Values joined by “and” are separate entries in the source; they are usually repeats but may differ in a detail not shown here. Equal entries are not always repeated.

The target in experiment [1] is AS25 A57G monobody. In words: ITC; Abl SH2 in the syringe (200 µM; 300 µM for AS25 Y45A-A57G) titrated to the monobody in the cell (20 µM; 30 µM for AS25 Y45A-A57G); 25 °C; 50 mM Tris pH 7.0, 250 mM NaCl, 5% glycerol; two replicate experiments. (In general: Isothermal titration calorimetry measures the heat released or taken up as one component is titrated into another.)

The target in experiment [2] is AS25 Y45A-A57G monobody. The experiment is described as above.
Sequence of AS25 Y45A-A57G monobody (main, as listed by the source Y45A A57G): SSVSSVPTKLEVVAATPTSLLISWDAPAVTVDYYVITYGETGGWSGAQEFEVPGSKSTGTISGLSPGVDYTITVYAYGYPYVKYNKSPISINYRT
Experiment [3] concerns the target AS25 monobody. The experiment is described as above.
For experiment [4], the target named is monobody AS25. In words: ITC; Abl SH2 in the syringe (200 µM, or 300 µM for AS25 Y45A-A57G) titrated to the monobody in the cell (20 µM, or 30 µM); 50 mM Tris pH 7.0, 250 mM NaCl, 5% glycerol; 25 °C.
Sequence of monobody AS25 (main, as listed by the source): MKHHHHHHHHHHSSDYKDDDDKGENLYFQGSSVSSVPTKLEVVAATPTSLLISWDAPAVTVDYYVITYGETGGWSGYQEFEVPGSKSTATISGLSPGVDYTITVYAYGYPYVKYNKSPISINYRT
Experiment [5] has as its target AS25_(Y45A-A57G). The experiment is described as above.
The target in experiment [6] is AS25_(A57G). The description is as above.
Sequence of AS25_(A57G) (main, as listed by the source A57G): as the sequence (main, as listed by the source) above, with A89G counted along it

Sequence of AS25_(Y45A-A57G) (main, as listed by the source Y45A A57G): as the sequence (main, as listed by the source) above, with Y77A, A89G counted along it

In the case of “Abl1 SH2 domain (from UniProt P00519 112-232) (domain or fragment)”, the Kd in experiment [1] worked out at 188 nM; in experiment [2], 3170 nM; in experiment [3] it was 210 nM; in experiment [4], 180 nM; in experiment [5], 2690 nM; in experiment [6], 156 nM. Besides, the stoichiometry N was 0.864 and 0.817 in experiment [1]; 0.792 and 0.788 in experiment [2]; 0.861 and 0.869 in experiment [3]; 1 in experiment [4]; 1 in experiment [5]; 1 in experiment [6].

The term Kd denotes a measure of binding affinity in units of concentration. Read a high Kd as lower affinity. In general, stoichiometry N refers to a count of units in the complex or per binding partner.
